Experimental data from patent US20150218281A1 (Ablynx, published 2015).

How the values were obtained:
[1] = target: T1, recombinant human OX40L (extracellular domain, R&D Systems) (human, UniProt P23510 51-183); assay: SPR, second injection after competitor OX40L19D08
T1 construct: also called hOX40L; rec. hOX40L
T1 sequence: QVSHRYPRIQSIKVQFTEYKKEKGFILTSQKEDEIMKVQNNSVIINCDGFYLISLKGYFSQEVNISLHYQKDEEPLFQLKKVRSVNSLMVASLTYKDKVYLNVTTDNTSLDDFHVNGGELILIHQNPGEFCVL
Experimental: (§1) In addition, it was investigated to what extend the 7 anti-OX40L Nanobodies have a different or identical or overlapping epitope. Standard conditions were as described above. […] 1300 RU. A dual injection was performed at 10 μl/min for 2 min, starting with 500 nM of the first Nanobody, followed by 500 nM of the second Nanobody. After 10 min dissociation, regeneration of the surface was performed by injection of 50 mM NaOH for 5-20 sec at 100 μl/min.

[2] = target: T2, biotinylated hOX40L (R&D Systems, biotinylated in house) (human, UniProt P23510 51-183, biotinylated with Sulfo-NHS-LC-Biotin, sites not stated); assay: AlphaScreen, 31 pM biotinylated hOX40L + 80 pM OX40/Fc
T2 construct: same bought protein as m10, biotinylated; also called biotinylated OX40L
T2 sequence: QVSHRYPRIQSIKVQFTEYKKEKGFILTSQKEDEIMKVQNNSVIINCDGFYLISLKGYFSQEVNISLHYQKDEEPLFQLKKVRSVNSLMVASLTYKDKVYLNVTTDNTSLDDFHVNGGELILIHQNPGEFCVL
Experimental: (§2) Next, streptavidin donor beads were added and incubated for an additional 1 hour. Fluorescence was measured by reading plates on the EnVision Multilabel Plate Reader using an excitation wavelength of 680 nm and an emission wavelength of 520 nm.

[3] = target: T2, biotinylated hOX40L (R&D Systems, …); assay: AlphaScreen, 120 pM biotinylated hOX40L + 0.2 nM hOX40/Fc
Experimental: as §2

[4] = target: T3, full length human OX40L expressed on CHO cells (human, UniProt P23510 1-183); assay: FACS binding to CHO cells, anti-c-myc detection
T3 construct: CHO K1 stably transfected as described for CAKI cells; also called CHO-hOX40L; hOX40L expressing CHO cells
T3 sequence: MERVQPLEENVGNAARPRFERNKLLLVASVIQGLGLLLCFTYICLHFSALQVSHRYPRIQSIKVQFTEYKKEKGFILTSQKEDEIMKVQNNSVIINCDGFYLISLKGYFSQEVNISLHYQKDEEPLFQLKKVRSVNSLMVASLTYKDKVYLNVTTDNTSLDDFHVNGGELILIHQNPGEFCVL
Experimental: (§3) Transfection of CHO K1 with the respective expression plasmid DNA and selection of clones with high expression levels was performed as described in Example 1. Binding of the Nanobodies to the cell surface expressed OX40L was assessed by FACS analysis of cells as described below.
(§4) After washing bound Nanobodies were detected in FACSArray™ using mouse anti-c-myc and PE conjugated goat anti-mouse IgG.

[5] = target: T4, cynomolgus OX40L expressed on CHO cells (cynomolgus monkey, UniProt P23510 1-183 (human entry)); assay: FACS binding to CHO cells, anti-c-myc detection
T4 construct: also called cynoOX40L; CHO-cynoOX40L
T4 chain: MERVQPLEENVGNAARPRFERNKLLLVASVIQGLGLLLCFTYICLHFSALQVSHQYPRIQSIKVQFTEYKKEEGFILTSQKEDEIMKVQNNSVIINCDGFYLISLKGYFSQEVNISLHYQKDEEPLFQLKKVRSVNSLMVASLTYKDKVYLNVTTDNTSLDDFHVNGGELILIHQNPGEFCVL
Experimental: as §3, §4

[6] = target: T3, full length human OX40L expressed on …; assay: cell-based or functional assay
[7] = target: T1, recombinant human OX40L (extracellular …); assay: SPR, second injection after competitor OX40L01E07
Experimental: as §1

[8] = target: T1, recombinant human OX40L (extracellular …); assay: SPR, second injection after competitor OX40L19A07
Experimental: as §1

[9] = target: T3, full length human OX40L expressed on …; assay: competition FACS with hOX40/Fc on CHO-hOX40L
Experimental: The competition FACS assay was performed as described in example 2.

[10] = target: T3, full length human OX40L expressed on …; assay: competition FACS, 3.1 nM hOX40/Fc on hOX40L expressing cells
[11] = target: T1, recombinant human OX40L (extracellular …); assay: SPR, second injection after competitor OX40L15B07
Experimental: as §1

[12] = target: T1, recombinant human OX40L (extracellular …); assay: SPR, second injection after competitor OX40L01B11
Experimental: as §1

[13] = target: T1, recombinant human OX40L (extracellular …); assay: SPR, second injection after competitor OX40L01E10
Experimental: as §1

[14] = target: T1, recombinant human OX40L (extracellular …); assay: SPR, after second injection of buffer HBS-EP+
Experimental: as §1

[15] = target: T2, biotinylated hOX40L (R&D Systems, …); assay: hOX40L/hOX40 AlphaScreen, sample heated 1 min at Tm+10 C
Experimental: as §2
In the TSA assay, Nanobodies were diluted to a concentration of 0.2 mg/ml and melting temperature (Tm) was determined at different pH by stepwise increase in temperature in presence of Sypro Orange, a dye that binds to […] residues that become exposed upon unfolding of the protein, using the Lightcycler (Roche) for detection. […] In SEC analysis, the Nanobodies were analyzed on a Phenomenex matrix to allow detection of multimers, aggregates or ‘stickyness’.

[16] = target: T1, recombinant human OX40L (extracellular …); assay: SPR, second injection after competitor OX40L18E09
Experimental: as §1

| Binder | Binding Level sample 2 (RU) [1] [RU] | Binding Level sample 2 - sample 1 (RU) [1] [RU] | IC50 [2] [nM] | IC50 [3] [nM] | EC50 [4] [nM] | EC50 [5] [nM] | IC50, IL4 production, T-cell activation assay, donor 1 [6] [nM] | IC50, IL4 production, T-cell activation assay, donor 2 [6] [nM] | IC50, IL4 production, T-cell activation assay, donor 3 [6] [nM] | Binding Level sample 2 (RU) [7] [RU] | Binding Level sample 2 - sample 1 (RU) [7] [RU] | Binding Level sample 2 (RU) [8] [RU] | Binding Level sample 2 - sample 1 (RU) [8] [RU] | IC50 [9] [nM] | IC50 [10] [nM] | Binding Level sample 2 (RU) [11] [RU] | Binding Level sample 2 - sample 1 (RU) [11] [RU] | Binding Level sample 2 (RU) [12] [RU] | Binding Level sample 2 - sample 1 (RU) [12] [RU] | Binding Level sample 2 (RU) [13] [RU] | other results |
| --- | --- | --- | --- | --- | --- | --- | --- | --- | --- | --- | --- | --- | --- | --- | --- | --- | --- | --- | --- | --- | --- |
| OX40L01B11 (VHH, monovalent Nanobody from E. coli; not shown: C-terminal c-myc and His6 tag) VHH: EVQLVESGGGLVQAGGSLRLSCVASGRSFSTYIMGWFRQAPGKEREFVATISRSGITTRSADSVKGRFTISRDNAKNTVYLQMNSLKPEDTAVYYCAAGPYVEQTLGLYQTLGPWDYWGQGTQVTVSS | 433 | 205 | 0.278 | 0.375 | 2.94 | 3.39 | 230 | 188 | 80 | 399 | 205 | 358 | 180 | 5 | 5.61 | 259 | 61 | 380 | 7 | 296 | IC50, IL4 production, T-cell activation assay, donor 4 [6]: 220 nM; Binding Level sample 2 - sample 1 (RU) [13]: 76 RU; Binding Level sample 2 (RU) [14]: 383 RU; Binding Level sample 2 - sample 1 (RU) [14]: -57 RU; IC50 [15]: 0.6 nM; Binding Level sample 2 (RU) [16]: 238 RU; Binding Level sample 2 - sample 1 (RU) [16]: 48 RU |
| OX40L15B07 (VHH, monovalent Nanobody from E. coli; not shown: C-terminal c-myc and His6 tag) VHH: EVQLVESGGGLVQAGGSLRLSCAASRSIGRLDRMGWYRHRTGEPRELVATITGGSSINYGDFVKGRFTISIDNAKNTVYLQMNNLKPEDTAVYYCNFNKYVTSRDTWGQGTQVTVSS | 217 | -7 | 0.125 | 0.3 | 2.43 | 3.23 | 236 | 249 | 73 | 198 | 12 | 200 | 26 | 2 | 1.61 | 198 | 5 | 324 | -9 | 237 | Binding Level sample 2 - sample 1 (RU) [13]: 17 RU; Binding Level sample 2 (RU) [14]: 155 RU; Binding Level sample 2 - sample 1 (RU) [14]: -40 RU; Binding Level sample 2 (RU) [16]: 189 RU; Binding Level sample 2 - sample 1 (RU) [16]: 2 RU |
| OX40L01E07 (VHH, monovalent Nanobody from E. coli; not shown: C-terminal c-myc and His6 tag) VHH: EVQLVESGGGLVQAGGSLRLSCAASGRTFSSIYAKGWFRQAPGKEREFVAAISRSGRSTSYADSVKGRFTISRDNAKNTVYLQMNSLKPEDTAVYYCAAVGGATTVTASEWDYWGLGTQVTVSS | 252 | 23 | 0.229 | 0.423 | 4.03 | 4.9 | 260 | 320 | 125 | 192 | 11 | 240 | 63 | 11 | 8.89 | 252 | 55 | 486 | 194 | 289 | IC50, IL4 production, T-cell activation assay, donor 4 [6]: 169 nM; Binding Level sample 2 - sample 1 (RU) [13]: 62 RU; Binding Level sample 2 (RU) [14]: 212 RU; Binding Level sample 2 - sample 1 (RU) [14]: -9 RU; IC50 [15]: 0.1 nM; Binding Level sample 2 (RU) [16]: 238 RU; Binding Level sample 2 - sample 1 (RU) [16]: 45 RU |
